In publication PMC10397247 one finds interaction score data, which are given here for four molecules.

Assay [1] concerns the target T1, O16.
T1 chain: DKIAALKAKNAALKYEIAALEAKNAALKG
Briefly: two-hybrid library CCNG1.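 Note: natural log of median RNA to DNA barcode read ratio; higher means stronger binding.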

Assay [2] has as its target T2, O2.
T2 chain: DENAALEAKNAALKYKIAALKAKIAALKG
Briefly: two-hybrid library CCNG1.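 Note: natural log of median RNA to DNA barcode read ratio; higher means stronger binding.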

Assay [3] concerns the target T3, O3.
T3 chain: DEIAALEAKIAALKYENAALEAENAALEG
Briefly: two-hybrid library CCNG1.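 Note: natural log of median RNA to DNA barcode read ratio; higher means stronger binding.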

Assay [4] concerns the target T4, O4.
T4 chain: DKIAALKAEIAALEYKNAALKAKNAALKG
Briefly: two-hybrid library CCNG1.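 Note: natural log of median RNA to DNA barcode read ratio; higher means stronger binding.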

Assay [5] addresses T5, O8.
T5 chain: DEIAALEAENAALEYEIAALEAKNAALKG
Briefly: two-hybrid library CCNG1.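 Note: natural log of median RNA to DNA barcode read ratio; higher means stronger binding.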

The target of assay [6] is T6, O9.
T6 chain: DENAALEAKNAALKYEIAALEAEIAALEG
Kind of assay: two-hybrid library CCNG1.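 Note: natural log of median RNA to DNA barcode read ratio; higher means stronger binding.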

Assay [7] has as its target T7, O7.
T7 chain: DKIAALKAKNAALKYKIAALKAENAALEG
Briefly: two-hybrid library CCNG1.

Assay [8] concerns the target T8, O15.
T8 chain: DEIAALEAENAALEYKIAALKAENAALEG
Kind of assay: two-hybrid library CCNG1.

Assay [9] has as its target T9, O6.
T9 chain: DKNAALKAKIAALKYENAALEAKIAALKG
Kind of assay: two-hybrid library CCNG1.

In assay [10] the target is T10, O5.
T10 chain: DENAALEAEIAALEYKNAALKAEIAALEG
Kind of assay: two-hybrid library CCNG1.

The target of assay [11] is T11, P7-AA.
T11 chain: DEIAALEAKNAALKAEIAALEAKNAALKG
Briefly: two-hybrid library CCmax.

The target in assay [12] is T12, 4H_BCR.
T12 chain: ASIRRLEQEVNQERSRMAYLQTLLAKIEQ
Briefly: two-hybrid library CCmax.

In assay [13] the target is T13, P9-AA.
T13 chain: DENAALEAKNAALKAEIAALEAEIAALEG
Briefly: two-hybrid library CCmax.

For assay [14], the target named is T14, P3-AA.
T14 chain: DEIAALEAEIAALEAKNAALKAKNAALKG
Kind of assay: two-hybrid library CCmax.

Assay [15] concerns the target T15, AP4-AA.
T15 chain: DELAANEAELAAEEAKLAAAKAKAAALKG
Kind of assay: two-hybrid library CCmax. As to conditions: mean of both orientations.

Assay [16] has as its target T16, AP5-AA.
T16 chain: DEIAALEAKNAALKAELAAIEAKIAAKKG
Kind of assay: two-hybrid library CCmax.

For assay [17], the target named is T17, P2-AA.
T17 chain: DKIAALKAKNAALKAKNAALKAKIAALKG
Kind of assay: two-hybrid library CCmax.

Assay [18] addresses T18, P12-AA.
T18 chain: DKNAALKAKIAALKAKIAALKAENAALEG
Briefly: two-hybrid library CCmax.

Assay [19] deals with T19, AP7-AA.
T19 chain: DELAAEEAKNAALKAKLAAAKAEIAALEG
Briefly: two-hybrid library CCmax.

Assay [20] addresses T20, P8-AA.
T20 chain: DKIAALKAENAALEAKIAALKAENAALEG
Briefly: two-hybrid library CCmax.

The target of assay [21] is T21, P1-AA.
T21 chain: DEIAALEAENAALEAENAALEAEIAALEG
Briefly: two-hybrid library CCmax.

For assay [22], the target named is T22, P4-AA.
T22 chain: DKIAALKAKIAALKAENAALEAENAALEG
Briefly: two-hybrid library CCmax.

Assay [23] addresses T23, AP6-AA.
T23 chain: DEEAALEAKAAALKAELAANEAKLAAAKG
Briefly: two-hybrid library CCmax.

In assay [24] the target is T24, P10-AA.
T24 chain: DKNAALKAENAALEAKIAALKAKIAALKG
Briefly: two-hybrid library CCmax.

Assay [25] addresses T25, AP8-AA.
T25 chain: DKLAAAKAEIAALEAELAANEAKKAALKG
Kind of assay: two-hybrid library CCmax.

Assay [26] addresses T26, AP1-AA.
T26 chain: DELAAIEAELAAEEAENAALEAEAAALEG
Briefly: two-hybrid library CCmax. As to conditions: mean of both orientations.

Assay [27] has as its target T27, P11-AA.
T27 chain: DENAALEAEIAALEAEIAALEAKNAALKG
Briefly: two-hybrid library CCmax.

For assay [28], the target named is T28, AP2-AA.
T28 chain: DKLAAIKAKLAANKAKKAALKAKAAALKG
Kind of assay: two-hybrid library CCmax.

In assay [29] the target is T29, AP3-AA.
T29 chain: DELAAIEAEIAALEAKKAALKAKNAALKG
Briefly: two-hybrid library CCmax.

In assay [30] the target is T30, zCON9_B.
T30 chain: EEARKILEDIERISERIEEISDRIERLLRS
Kind of assay: two-hybrid library CCmax. Particulars: mean of both orientations.

Assay [31] concerns the target T31, O11-AA.
T31 chain: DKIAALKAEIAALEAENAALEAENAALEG
Briefly: two-hybrid library CCmax. As to conditions: mean of both orientations.

The target in assay [32] is T32, zCON9_A.
T32 chain: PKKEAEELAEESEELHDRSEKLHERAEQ
Kind of assay: two-hybrid library CCmax.

Assay [33] concerns the target T33, zCON9_D.
T33 chain: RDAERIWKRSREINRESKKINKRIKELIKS
Briefly: two-hybrid library CCmax. Particulars: mean of both orientations.

Assay [34] has as its target 4H_GCN4. Briefly: two-hybrid library CCmax. Particulars: mean of both orientations.
For assay [35], the target named is GCN2_T. Kind of assay: two-hybrid library CCmax.
The target of assay [36] is T34, O13-AA.
T34 chain: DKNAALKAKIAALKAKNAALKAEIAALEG
Briefly: two-hybrid library CCmax. Particulars: mean of both orientations.

The target in assay [37] is T35, O14-AA.
T35 chain: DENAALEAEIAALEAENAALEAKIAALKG
Briefly: two-hybrid library CCmax. Particulars: mean of both orientations.

Like-named read-outs stand apart in the source and are kept apart here.

Chain of 4H_GCN4 (chain, as listed by the source): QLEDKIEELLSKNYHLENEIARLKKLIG

B1: O15 (peptide)
chain: DEIAALEAENAALEYKIAALKAENAALEG
For B1, the interaction score in [1] is 1.41; in assay [2], -2.21; in assay [3], -2.17; in assay [4], -1.8; in assay [5], -1.73; in assay [6] it was -2.28. The interaction score in assay [7] was -0.707; in assay [8], -1.57; in assay [9], -2.48; in assay [10] it was -1.45.

B2: 4H_APH4 (peptide)
chain: KRLKQIEKRLQAKEWEKAQLRKELQALRK
In the case of B2, the interaction score in [11] was -1.7; in [12] it was -1.95; in assay [13], -1.79; in assay [14] it was -1.05; in [15], -1.78; in assay [16], -1.61. Further, the interaction score is -1.88 in assay [17]; -2.07 in assay [18]; -2.06 in [19]; -2.2 in assay [20]; -2.2 in [21]; -2.31 in [22]. In addition, the interaction score in assay [23] is -2.8; in assay [24] it was -1.38; in [25] it was -1.39; in assay [26] it was -1.81; in [27] it was -1.36; in [28], -2.2. For the same molecule, the interaction score in assay [29] was -1.44.

B3: 4H_BCR (peptide)
chain: ASIRRLEQEVNQERSRMAYLQTLLAKIEQ
For the molecule B3, the interaction score in assay [11] (mean of both orientations) was -1.28; in assay [12] it was -1.84; in assay [13] (mean of both orientations), -1.88; in [14] (mean of both orientations), -2.12; in assay [15], -1.51; in assay [16] (mean of both orientations) it was -1.5. In addition, the interaction score in assay [30] is -0.916; in assay [31], -1.66; in assay [17] (mean of both orientations), -2.08; in [18] (mean of both orientations), -1.94; in assay [32], -2.12; in assay [19] (mean of both orientations), -1.69. In addition, the interaction score was -1.5 in [33]; -1.85 in assay [20] (mean of both orientations); -1.71 in [21] (mean of both orientations); -1.94 in [22] (mean of both orientations); -1.7 in assay [34]; -1.75 in assay [23] (mean of both orientations). Moreover, the interaction score was -1.67 in assay [24] (mean of both orientations); -1.28 in assay [25] (mean of both orientations); -1.92 in assay [26]; -2.01 in [35]; -1.68 in assay [27] (mean of both orientations); -2.54 in assay [28] (mean of both orientations). Besides, the interaction score in assay [36] is -1.72; in assay [37], -0.776; in assay [29] (mean of both orientations), -1.8.

B4: O16 (peptide)
chain: DKIAALKAKNAALKYEIAALEAKNAALKG
B4: the interaction score in [1] is -2.69; in assay [2] it was -2.29; in assay [3], -1.85; in assay [4], -1.89; in [5] it was -0.596; in assay [6], -2.26. Besides, the interaction score in [7] is -1.81; in [9], -1.46; in [10] it was -1.91.
